Assay results published in PMC3019557 (The Journal of Cell Biology, 2011).

T1: CFP-PPARγ2 (peroxisome proliferator activated receptor γ2 fused to ECFP) (UniProt P37231-1 1-505)
T1 sequence (looked up): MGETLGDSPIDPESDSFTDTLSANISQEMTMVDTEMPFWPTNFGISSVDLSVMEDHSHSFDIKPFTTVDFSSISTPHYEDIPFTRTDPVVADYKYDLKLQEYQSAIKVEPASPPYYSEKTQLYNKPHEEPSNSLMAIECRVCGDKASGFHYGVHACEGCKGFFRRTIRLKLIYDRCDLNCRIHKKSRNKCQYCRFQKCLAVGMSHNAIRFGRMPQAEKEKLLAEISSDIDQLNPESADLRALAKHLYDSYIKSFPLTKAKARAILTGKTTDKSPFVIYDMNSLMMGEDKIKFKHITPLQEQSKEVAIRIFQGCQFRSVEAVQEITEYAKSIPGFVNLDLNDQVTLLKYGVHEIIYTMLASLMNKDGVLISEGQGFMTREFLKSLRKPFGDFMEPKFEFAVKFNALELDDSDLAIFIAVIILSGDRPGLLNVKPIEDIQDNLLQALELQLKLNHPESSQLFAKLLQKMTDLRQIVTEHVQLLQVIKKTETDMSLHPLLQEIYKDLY


Biological target: T1, CFP-PPARγ2 (peroxisome proliferator …)
Test: FRET or BRET

Row | fold change in FRET, MIX against vehicle [fold] | Binder
1 | > 1.5 | EYFP-SRC-2 (steroid receptor coactivator 2 fused to EYFP) (natural protein) not shown
2 | > 1.5 | EYFP-SRC-3 (steroid receptor coactivator 3 fused to EYFP) (natural protein) not shown
